From US20120195879A1

Experiments:
[1] = target: human Kv1.1 (human) (UniProt Q09470); assay: cell-based or functional assay
[2] = target: human Kv1.3 (human) (UniProt P22001); assay: cell-based or functional assay
human Kv1.3 (human), sequence (P22001 whole entry): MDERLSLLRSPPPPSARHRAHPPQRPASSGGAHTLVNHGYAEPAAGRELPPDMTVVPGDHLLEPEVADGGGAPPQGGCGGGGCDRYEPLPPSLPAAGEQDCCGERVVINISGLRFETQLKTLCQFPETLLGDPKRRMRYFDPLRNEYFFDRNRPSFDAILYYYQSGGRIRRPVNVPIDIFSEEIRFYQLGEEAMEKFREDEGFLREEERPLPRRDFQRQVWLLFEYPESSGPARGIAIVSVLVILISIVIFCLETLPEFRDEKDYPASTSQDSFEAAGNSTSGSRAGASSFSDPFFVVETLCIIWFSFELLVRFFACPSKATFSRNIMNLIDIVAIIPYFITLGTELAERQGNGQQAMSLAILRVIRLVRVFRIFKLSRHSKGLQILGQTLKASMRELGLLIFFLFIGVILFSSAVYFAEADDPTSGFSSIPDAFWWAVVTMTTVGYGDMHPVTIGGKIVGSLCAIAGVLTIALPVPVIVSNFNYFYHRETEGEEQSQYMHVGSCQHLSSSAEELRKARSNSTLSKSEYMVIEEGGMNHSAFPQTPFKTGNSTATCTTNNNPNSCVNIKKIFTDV

human Kv1.1 (human), sequence (Q09470 whole entry): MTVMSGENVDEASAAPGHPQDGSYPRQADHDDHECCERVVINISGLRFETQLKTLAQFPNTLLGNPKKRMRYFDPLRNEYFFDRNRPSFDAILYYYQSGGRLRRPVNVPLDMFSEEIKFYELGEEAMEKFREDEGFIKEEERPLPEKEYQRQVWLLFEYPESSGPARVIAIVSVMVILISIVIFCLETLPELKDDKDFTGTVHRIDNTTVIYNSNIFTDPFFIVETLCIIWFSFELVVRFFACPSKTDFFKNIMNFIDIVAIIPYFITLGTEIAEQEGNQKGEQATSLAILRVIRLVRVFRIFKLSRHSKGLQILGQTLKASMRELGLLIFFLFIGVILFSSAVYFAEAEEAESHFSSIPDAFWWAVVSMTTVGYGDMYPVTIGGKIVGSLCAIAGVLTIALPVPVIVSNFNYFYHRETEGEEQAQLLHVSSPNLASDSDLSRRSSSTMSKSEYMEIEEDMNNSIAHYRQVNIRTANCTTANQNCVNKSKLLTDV

Substance	Kv1.1 (PX) IC50 [1]	Kv1.1/Kv1.3 Selectivity Ratio by PX [2]	Kv1.3 (PX) IC50 [2]	Potency Relative to ShK (WB, IL2) [2]	WB (IFNg) IC50 [2]	WB (IL-2) IC50 [2]
20 kDa-PEG-ShK (peptide)	1630 pM	5.44	299 pM	5.67	840 pM	380 pM
Monovalent Fc/Fc-L10-ShK[2-35] heterodimer (Fc fusion)				32.1		
